This note sets out measurements from patent publication US11175289B2, “Application of TRPM8 protein, related peptide fragment and their antibodies” (priority 2016, dated 2021).

Entries after “also recorded” stand apart in the source; their conditions may differ.

Assay [1] has as its system prostate tissue of SD rats. Put plainly: CP/CPPS animal model by immunization with antigen plus CFA; HE staining and pathological score of prostate. In kind it is in vivo, rat. The source says:
(§1) Experiment is designed and performed as follows. Firstly, pure TRPM8 protein is combined with Complete Freund's adjuvant (CFA) to establish an animal model of CP/CPPS. The animal model is compared with a prostatein homogenate modeling method. Meanwhile, TRPM8 in prostatein homogenate is removed by immunomagnetic beads; wherein the prostatein homogenate is molded for serving as a negative control. HE staining method is utilized to evaluate the severity of inflammation in prostate tissue of each modeling group of animal, and the severity of inflammation in prostate tissue is performed with pathological score. CD3 immunofluorescence method is adopted to observe infiltrating of T lymphocyte in prostate of the modeling animal.
Take 40 8-week-old SPF level male SD rats, with weights at a range of 250±20 g. The rats are purchased from Shanghai Sijie laboratory Co., Ltd with a license number of SCXK (Shanghai) 2012-0006. Under an aseptic condition, prostate of an SD rats is taken to prepare prostatein homogenate and TRPM8 removed homogenate protein. Grouping of immune animals in experiments is as follows. 40 8-week-old SD rats are randomly classified into 4 groups, i.e., a homogenate protein group, a TRPM8 removed homogenate protein group, a pure TRPM8 protein group and a control group; wherein each group comprises 10 rats. After 8 weeks of immune, each group of the rats are injected with 10% chloral hydrate on abdomen for anesthesia, and plasma and prostate of each group of rats are respectively collected. Preparation of prostate pathological section: the paraffin embedded prostate sections of the rats in each experimental group are sent to a drying oven, heated under 60° C. for 30 min. […]
According to HE staining result, prostatitis degree of each group of rats are pathologically scored under standards as follows. […]
Each prostate section is scored by three associate professors in pathology according to the standards mentioned above under a randomized and double-blind principle, and an average value calculated is a histological score indicating degree of the prostatitis of the animal. […]

In assay [2] the test system is T lymphocyte in prostate of the modeling animal. Put plainly: CD3 immunofluorescence staining of prostate tissue. In kind it is in vivo, rat. To be noted: SD rats immunized with antigen combined with CFA.
Description: as §1
In addition, the prostate tissue sections of each group of animals to be tested are taken, baked in an oven for 30 minutes at 60° C., then subjected to CD3 immunofluorescence, and finally added with anti-fluorescence quenching agent for sealing, observed under a microscope, wherein photos are taken.
In order to improve the inflammatory cell containing a plurality of T-lymphocytes, the CD3 molecules are performed with immunofluorescence staining. The results are shown in FIG. 3: A: control blank group; B: protein homogenate group; C: pure TRPM8 protein group; D: TRPM8 protein free homogenate group.

B1: TRPM8 protein: TRPM8 protein purchased from ProteinTech Group; combined with CFA to immunize SD rats (protein)
chain: MSFRAARLSMRNRRNDTLDSTRTLYSSASRSTDLSYSESDLVNFIQANFKKRECVFFTKDSKATENVCKCGYAQSQHMEGTQINQSEKWNYKKHTKEFPTDAFGDIQFETLGKKGKYIRLSCDTDAEILYELLTQHWHLKTPNLVISVTGGAKNFALKPRMRKIFSRLIYIAQSKGAWILTGGTHYGLMKYIGEVVRDNTISRSSEENIVAIGIAAWGMVSNRDTLIRNCDAEGYFLAQYLMDDFTRDPLYILDNNHTHLLLVDNGCHGHPTVEAKLRNQLEKYISERTIQDSNYGGKIPIVCFAQGGGKETLKAINTSIKNKIPCVVVEGSGQIADVIASLVEVEDALTSSAVKEKLVRFLPRTVSRLPEEETESWIKWLKEILECSHLLTVIKMEEAGDEIVSNAISYALYKAFSTSEQDKDNWNGQLKLLLEWNQLDLANDEIFTNDRRWESADLQEVMFTALIKDRPKFVRLFLENGLNLRKFLTHDVLTELFSNHFSTLVYRNLQIAKNSYNDALLTFVWKLVANFRRGFRKEDRNGRDEMDIELHDVSPITRHPLQALFIWAILQNKKELSKVIWEQTRGCTLAALGASKLLKTLAKVKNDINAAGESEELANEYETRAVELFTECYSSDEDLAEQLLVYSCEAWGGSNCLELAVEATDQHFIAQPGVQNFLSKQWYGEISRDTKNWKIILCLFIIPLVGCGFVSFRKKPVDKHKKLLWYYVAFFTSPFVVFSWNVVFYIAFLLLFAYVLLMDFHSVPHPPELVLYSLVFVLFCDEVRQWYVNGVNYFTDLWNVMDTLGLFYFIAGIVFRLHSSNKSSLYSGRVIFCLDYIIFTLRLIHIFTVSRNLGPKIIMLQRMLIDVFFFLFLFAVWMVAFGVARQGILRQNEQRWRWIFRSVIYEPYLAMFGQVPSDVDGTTYDFAHCTFTGNESKPLCVELDEHNLPRFPEWITIPLVCIYMLSTNILLVNLLVAMFGYTVGTVQENNDQVWKFQRYFLVQEYCSRLNIPFPFIVFAYFYMVVKKCFKCCCKEKNMESSVCCFKNEDNETLAWEGVMKENYLVKINTKANDTSEEMRHRFRQLDTKLNDLKGLLKEIANKIK
With B1, in assay [1] (SD rats immunized with antigen), the “pathogenicity causing CP/CPPS” value is recorded as “successfully induces generation of CP/CPPS; also recorded: strong pathogenicity causing CP/CPPS”. In addition, the “inflammatory cell infiltration in prostate (HE staining)” value in assay [1] (SD rats immunized with antigen combined with CFA, 8 weeks) is recorded as “a plurality of inflammatory cell infiltration”. In addition, in assay [1] (SD rats immunized with antigen combined with CFA, 8 weeks, score 0-3, M±SD), the “histological score (pathological evaluation of prostatitis degree)” value came out at 2.7000±0.4830. In addition, the “CD3 immunofluorescence staining of prostate stromal” value in assay [2] is recorded as “A large area of CD3 molecule marked by red luminescence”.
